{
  "source": "paper PMC9138245",
  "target": "HA-ezrin fused protein (human (cDNA from HEK293T cells)) (UniProt P15311)",
  "sequence (P15311 whole entry, the tested form may be a part)": "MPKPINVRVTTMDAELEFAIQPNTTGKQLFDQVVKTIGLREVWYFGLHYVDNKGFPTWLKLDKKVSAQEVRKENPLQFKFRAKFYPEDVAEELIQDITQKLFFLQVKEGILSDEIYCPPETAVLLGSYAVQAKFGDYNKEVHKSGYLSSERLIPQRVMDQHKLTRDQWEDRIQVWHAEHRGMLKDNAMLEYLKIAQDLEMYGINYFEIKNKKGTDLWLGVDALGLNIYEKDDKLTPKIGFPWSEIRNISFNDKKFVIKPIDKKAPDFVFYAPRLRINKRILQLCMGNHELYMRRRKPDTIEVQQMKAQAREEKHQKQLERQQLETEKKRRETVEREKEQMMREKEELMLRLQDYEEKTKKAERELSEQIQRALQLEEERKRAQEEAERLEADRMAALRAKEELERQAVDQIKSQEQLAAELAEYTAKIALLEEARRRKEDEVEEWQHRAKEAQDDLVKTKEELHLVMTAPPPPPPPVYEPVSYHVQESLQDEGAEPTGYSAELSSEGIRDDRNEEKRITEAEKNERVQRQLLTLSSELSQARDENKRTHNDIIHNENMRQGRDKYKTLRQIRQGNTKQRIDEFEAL",
  "data": [
    {"substance": "GFP-BifA fused protein (natural protein)", "values": [
      {"measurement": "ratio of p-ezrin/total-ezrin in dHL60 cells under BifA treatment (10 μg/mL purified BifA), phos-tag gel and immunoblot, 0 to 2 h (ratio p-ezrin/total-ezrin)", "result": 1}
    ]}
  ]
}
